# From patent US20190022211A1 (CELLTRION, published 2019)
# Where “and” joins values, the source holds several entries; their conditions need not be identical. Identical values can stand only once.
# T1: G protein of rabies virus CVS-11 strain (on virus) (rabies virus CVS-11 strain, UniProt O92284 20-524)
# T1 sequence: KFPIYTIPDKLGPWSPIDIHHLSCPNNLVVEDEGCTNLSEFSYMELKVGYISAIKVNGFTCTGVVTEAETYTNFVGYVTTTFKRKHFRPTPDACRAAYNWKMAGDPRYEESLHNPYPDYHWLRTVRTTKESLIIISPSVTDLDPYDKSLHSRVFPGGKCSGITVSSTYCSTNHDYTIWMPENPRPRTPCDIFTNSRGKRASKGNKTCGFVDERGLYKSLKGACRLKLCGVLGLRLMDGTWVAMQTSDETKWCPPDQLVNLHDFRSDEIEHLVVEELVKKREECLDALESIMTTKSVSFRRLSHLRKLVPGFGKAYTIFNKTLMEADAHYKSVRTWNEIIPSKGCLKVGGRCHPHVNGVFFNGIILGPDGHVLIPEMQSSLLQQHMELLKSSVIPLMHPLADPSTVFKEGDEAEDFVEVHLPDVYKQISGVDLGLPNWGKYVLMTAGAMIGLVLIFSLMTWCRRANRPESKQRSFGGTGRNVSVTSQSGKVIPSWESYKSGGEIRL
# B1: antibody 1 (antibody, V domains shown)
# VH: VQLLQESGPGLAKPSETLSLICTVSGGSISRRRDYWGWIRQPPGRGLEWIGSFFHRGSTYYNPSLESRVSISVDPSKNQFSLHLSSVTVADTAVYYCARHPSTPFAEYLLLPDAFDSWGQGTLVTVSS
# VL: DIVMTQSPATLSVSPGERATLSCRASQSVRSSLAWYQQRPGQAPRLLISGASTRATDIPARLSGSGSGTEFTLTVSSLQSEDFAVYYCQQYSDWPLTFGGGTKVEIKR
# B2: antibody 2 (antibody, V domains shown)
# VH: EVQLVESGAEVKKPGASVKVSCKASGYTFTSYDISWVRQAPGQGLEWMGWISTYKGNTNFAQKFQDRVTLTTDTSTTTAYMELRSLTSDDTAVYYCARAKSHPFYDFWSAYYVPGAFDIWGQGTVVTVSS
# VL: not shown
# Assays:
# Test in all cases: cell-based or functional assay
# [1] = target: T1, G protein of rabies virus CVS-11 strain …
# [2] = target: G protein of rabies virus AL Bat (Bat, California, USA), on virus (rabies virus)
# [3] = target: G protein of rabies virus phi dog (Human/dog, Philippines), on virus (rabies virus)
# [4] = target: G protein of rabies virus Rv342 China (Cow/dog, China), on virus (rabies virus)
# [5] = target: G protein of rabies virus 323R (Dog/Coyote, Texas, USA), on virus (rabies virus)
# [6] = target: G protein of rabies virus Dog Tun (Dog, Tunisia), on virus (rabies virus)
# [7] = target: G protein of rabies virus China dog 2005 (Dog, China), on virus (rabies virus)
# [8] = target: G protein of rabies virus TX SK 4380 (Skunk, Texas, USA), on virus (rabies virus)
# [9] = target: G protein of rabies virus TX Coyote (Coyote, Texas, USA), on virus (rabies virus)
# [10] = target: G protein of rabies virus Sri Lanka (Cow, Sri Lanka), on virus (rabies virus)
# [11] = target: G protein of rabies virus Dog thai (Dog, Thailand), on virus (rabies virus)
# [12] = target: G protein of rabies virus 3860 CA Bat (Bat, California, USA), on virus (rabies virus)
# [13] = target: G protein of rabies virus Gabon dog (Dog, Gabon), on virus (rabies virus)
# [14] = target: G protein of EBLV 1 A09-3484 (Genotype 5), on virus (EBLV 1, Genotype 5)
# [15] = target: G protein of EBLV 2 A03-4659 (Genotype 6), on virus (EBLV 2, Genotype 6)
# [16] = target: G protein of EBLV 2 A09-3483 (Genotype 6), on virus (EBLV 2, Genotype 6)
# [17] = target: G protein of rabies virus CASK (Skunk, California, USA), on virus (rabies virus)
# [18] = target: G protein of rabies virus Dog son (Dog, Mexico), on virus (rabies virus)
# [19] = target: G protein of rabies virus LC NY (Bat, New York, USA), on virus (rabies virus)
# [20] = target: G protein of rabies virus Myotis (Bat, Washington, USA), on virus (rabies virus)
# [21] = target: G protein of rabies virus Phi 002 (231) (Human/dog, Philippines), on virus (rabies virus)
# [22] = target: G protein of rabies virus DR MX (Bat, Mexico), on virus (rabies virus)
binder,measurement,setting,value
B1,neutralizing activity (RFFIT),[1],0.41 IU/mL and 2060 IU/mg
same,"neutralizing activity (RFFIT), Titer",[1],70
same,neutralizing activity (RFFIT),[2],7.6 IU/mL and 7590 IU/mg
same,"neutralizing activity (RFFIT), Titer",[2],1100
same,neutralizing activity (RFFIT),[3],0.28 IU/mL and 1390 IU/mg
same,"neutralizing activity (RFFIT), Titer",[3],75
same,neutralizing activity (RFFIT),[4],0.5 IU/mL and 2540 IU/mg
same,"neutralizing activity (RFFIT), Titer",[4],280
same,neutralizing activity (RFFIT),[5],0.33 IU/mL and 1670 IU/mg
same,"neutralizing activity (RFFIT), Titer",[5],60
same,neutralizing activity (RFFIT),[6],2.3 IU/mL and 2300 IU/mg
same,"neutralizing activity (RFFIT), Titer",[6],230
same,neutralizing activity (RFFIT),[7],0.43 IU/mL and 2140 IU/mg
same,"neutralizing activity (RFFIT), Titer",[7],12
same,neutralizing activity (RFFIT),[8],0.4 IU/mL and 2000 IU/mg
same,"neutralizing activity (RFFIT), Titer",[8],50
same,neutralizing activity (RFFIT),[9],0.33 IU/mL and 1650 IU/mg
same,"neutralizing activity (RFFIT), Titer",[9],56
same,neutralizing activity (RFFIT),[10],0.43 IU/mL and 2160 IU/mg
same,"neutralizing activity (RFFIT), Titer",[10],54
same,neutralizing activity (RFFIT),[11],2.3 IU/mL and 2290 IU/mg
same,"neutralizing activity (RFFIT), Titer",[11],320
same,neutralizing activity (RFFIT),[12],0.4 IU/mL and 2000 IU/mg
same,"neutralizing activity (RFFIT), Titer",[12],56
same,neutralizing activity (RFFIT),[13],0.41 IU/mL and 2030 IU/mg
same,"neutralizing activity (RFFIT), Titer",[13],65
same,neutralizing activity (RFFIT),[14],0.56 IU/mL and 2800 IU/mg
same,"neutralizing activity (RFFIT), Titer",[14],56
same,neutralizing activity (RFFIT),[15],0.6 IU/mL and 3000 IU/mg
same,"neutralizing activity (RFFIT), Titer",[15],54
same,neutralizing activity (RFFIT),[16],2.22 IU/mL and 11100 IU/mg
same,"neutralizing activity (RFFIT), Titer",[16],50
same,neutralizing activity (RFFIT),[17],0.4 IU/mL and 2000 IU/mg
same,"neutralizing activity (RFFIT), Titer",[17],50
same,neutralizing activity (RFFIT),[18],2.7 IU/mL and 2720 IU/mg
same,"neutralizing activity (RFFIT), Titer",[18],340
same,neutralizing activity (RFFIT),[19],0.52 IU/mL and 2620 IU/mg
same,"neutralizing activity (RFFIT), Titer",[19],11
same,neutralizing activity (RFFIT),[20],1.64 IU/mL and 8210 IU/mg
same,"neutralizing activity (RFFIT), Titer",[20],230
same,neutralizing activity (RFFIT),[21],2.5 IU/mL and 2500 IU/mg
same,"neutralizing activity (RFFIT), Titer",[21],250
same,neutralizing activity (RFFIT),[22],2.4 IU/mL and 2380 IU/mg
same,"neutralizing activity (RFFIT), Titer",[22],250
B2,neutralizing activity (RFFIT),[1],1.47 IU/mL and 7350 IU/mg
same,"neutralizing activity (RFFIT), Titer",[1],250
same,neutralizing activity (RFFIT),[2],7.6 IU/mL and 7590 IU/mg
same,"neutralizing activity (RFFIT), Titer",[2],1100
same,neutralizing activity (RFFIT),[3],1.04 IU/mL and 5180 IU/mg
same,"neutralizing activity (RFFIT), Titer",[3],280
same,neutralizing activity (RFFIT),[4],2.4 IU/mL and 11800 IU/mg
same,"neutralizing activity (RFFIT), Titer",[4],1300
same,neutralizing activity (RFFIT),[5],3.47 IU/mL and 17400 IU/mg
same,"neutralizing activity (RFFIT), Titer",[5],625
same,neutralizing activity (RFFIT),[6],2.7 IU/mL and 2700 IU/mg
same,"neutralizing activity (RFFIT), Titer",[6],270
same,neutralizing activity (RFFIT),[7],0.46 IU/mL and 2320 IU/mg
same,"neutralizing activity (RFFIT), Titer",[7],13
same,neutralizing activity (RFFIT),[8],0.56 IU/mL and 2800 IU/mg
same,"neutralizing activity (RFFIT), Titer",[8],70
same,neutralizing activity (RFFIT),[9],1 IU/mL and 5000 IU/mg
same,"neutralizing activity (RFFIT), Titer",[9],170
same,neutralizing activity (RFFIT),[10],0.4 IU/mL and 2000 IU/mg
same,"neutralizing activity (RFFIT), Titer",[10],50
same,neutralizing activity (RFFIT),[11],9.3 IU/mL and 9290 IU/mg
same,"neutralizing activity (RFFIT), Titer",[11],1300
same,neutralizing activity (RFFIT),[12],1.5 IU/mL and 7500 IU/mg
same,"neutralizing activity (RFFIT), Titer",[12],210
same,neutralizing activity (RFFIT),[13],1.06 IU/mL and 5310 IU/mg
same,"neutralizing activity (RFFIT), Titer",[13],170
same,neutralizing activity (RFFIT),[14],5.4 IU/mL and 27000 IU/mg
same,"neutralizing activity (RFFIT), Titer",[14],540
same,neutralizing activity (RFFIT),[15],3.11 IU/mL and 15600 IU/mg
same,"neutralizing activity (RFFIT), Titer",[15],280
same,neutralizing activity (RFFIT),[16],5.56 IU/mL and 27800 IU/mg
same,"neutralizing activity (RFFIT), Titer",[16],125
same,neutralizing activity (RFFIT),[17],0.43 IU/mL and 2160 IU/mg
same,"neutralizing activity (RFFIT), Titer",[17],54
same,neutralizing activity (RFFIT),[18],8.8 IU/mL and 8800 IU/mg
same,"neutralizing activity (RFFIT), Titer",[18],1100
same,neutralizing activity (RFFIT),[19],2.14 IU/mL and 10700 IU/mg
same,"neutralizing activity (RFFIT), Titer",[19],45
same,neutralizing activity (RFFIT),[20],2 IU/mL and 10000 IU/mg
same,"neutralizing activity (RFFIT), Titer",[20],280
same,neutralizing activity (RFFIT),[21],2.5 IU/mL and 2500 IU/mg
same,"neutralizing activity (RFFIT), Titer",[21],250
same,neutralizing activity (RFFIT),[22],1.7 IU/mL and 1710 IU/mg
same,"neutralizing activity (RFFIT), Titer",[22],180
